Data set [1] deals with the molecule itself. Put plainly: non-reducing SDS-PAGE; recombinant hSSB1 proteins purified under non-reducing conditions, no reducing agent; Coomassie blue (2 μg) and anti-hSSB1 immunoblot (500 ng).
Data set [2] concerns the molecule itself. Put plainly: SEC-MALS; non-reduced (oxidized) protein, ~200-250 μg on Superose 12 10/30; 20 mM Tris pH 7, 100 mM NaCl, 1 mM EDTA, without TCEP. A general note: SEC sorts molecules by how far they enter the pores of the column.
Data set [3] concerns the molecule itself. Put plainly: non-reducing SDS-PAGE with immunoblot; whole cell lysates of U2OS cells (2% O2) treated with 250 μM H2O2 or 30 mM KBrO3 for 30 min; loading buffer without DTT; probed for endogenous hSSB1. A general note: In western blotting, separated proteins are transferred to a membrane and probed.

Residue numbers refer to the chain shown, from its start. Numbers in names are those of the source.

B1: recombinant C99S hSSB1 (natural protein, human, UniProt Q9BQ15 1-211, looked up)
chain: MTTETFVKDIKPGLKNLNLIFIVLETGRVTKTKDGHEVRTCKVADKTGSINISVWDDVGNLIQPGDIIRLTKGYASVFKGCLTLYTGRGGDLQKIGEFSMVYSEVPNFSEPNPEYSTQQAPNKAVQNDSNPSASQPTTGPSAASPASENQNGNGLSAPPGPGGGPHPPHTPSHPPSTRITRSQPNHTPAGPPGPSSNPVSNGKETRRSSKR
notes: human hSSB1 (NABP2/OBFC2B) with cysteine 99 mutated to serine; source: E. coli T7 shuffle strain, purified under non-reducing conditions
B1: the binding result in data set [1] was “binds”.

B2: recombinant hSSB1 (hexa-histidine tagged, wild type) (natural protein, human, UniProt Q9BQ15 1-211, looked up)
chain: B1 chain with S99C
notes: Oxidized and reduced preparations are the same construct; also called his-hSSB1; hSSB1 WT; source: E. coli T7 shuffle strain (Δgor ΔtrxB), purified (SP sepharose, Ni-NTA, Superdex200); without reducing agents ("oxidized") or with 1 mM DTT in all buffers ("reduced")
For orientation: stoichiometry N means a count of units in the complex or per binding partner. Regarding B2, the entries for the “stoichiometry N” value in data set [2] and in data set [1] were greater than 3 and 2, respectively.

B3: recombinant C81S hSSB1 (natural protein, human, UniProt Q9BQ15 1-211, looked up)
chain: B1 chain with C81S, S99C
notes: human hSSB1 (NABP2/OBFC2B) with cysteine 81 mutated to serine; source: E. coli T7 shuffle strain, purified under non-reducing conditions
With B3, the binding result in data set [1] was “binds”.

B4: human single-stranded DNA binding protein 1 (hSSB1), endogenous (natural protein, human (endogenous in U2OS), UniProt Q9BQ15 1-211, looked up)
chain: B1 chain with S99C
notes: also called NABP2; OBFC2B; source: endogenous, U2OS whole cell lysate
For the protein B4, in data set [3], the “stoichiometry N” value is roughly 4.

(Values after publication PMC4897654, “hSSB1 (NABP2/OBFC2B) is regulated by oxidative stress” (Scientific Reports, 2016).)
